# According to US10759835B2, “Monomeric streptavidin mutants, methods of using the same and processes of manufacturing proteins” (The Research Foundation for The State University of New York, priority 2016, dated 2020):
# Where “and” joins values, the source holds several entries; their conditions need not be identical. Identical values can stand only once.
# B1: mSA-R: monomeric streptavidin mutant SEQ ID NO: 2, S25R (S13R in SEQ ID NO: 1 numbering) (protein)
# chain: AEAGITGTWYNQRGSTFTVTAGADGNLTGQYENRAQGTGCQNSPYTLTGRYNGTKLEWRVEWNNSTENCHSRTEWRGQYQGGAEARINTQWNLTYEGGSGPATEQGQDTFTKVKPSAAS
# modifications: Modified streptavidin
# B2: mSA-ERWT: monomeric streptavidin mutant SEQ ID NO: 10, Q24E, S25R, T48W, E124T (protein)
# chain: AEAGITGTWYNERGSTFTVTAGADGNLTGQYENRAQGWGCQNSPYTLTGRYNGTKLEWRVEWNNSTENCHSRTEWRGQYQGGAEARINTQWNLTYEGGSGPATTQGQDTFTKVKPSAAS
# modifications: Modified streptavidin
# B3: mSA-DR: monomeric streptavidin mutant SEQ ID NO: 7, Q24D, S25R (protein)
# chain: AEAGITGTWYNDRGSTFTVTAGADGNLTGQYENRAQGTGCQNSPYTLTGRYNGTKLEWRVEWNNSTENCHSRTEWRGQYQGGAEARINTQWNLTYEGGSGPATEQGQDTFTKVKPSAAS
# modifications: modified streptavidin
# B4: mSA-DRF: monomeric streptavidin mutant SEQ ID NO: 9, Q24D, S25R, T48F (protein)
# chain: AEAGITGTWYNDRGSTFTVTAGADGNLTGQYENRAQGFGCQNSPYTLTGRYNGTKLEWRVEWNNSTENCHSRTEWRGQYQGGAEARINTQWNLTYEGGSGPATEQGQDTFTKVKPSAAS
# modifications: Modified streptavidin
# B5: mSA-ER: monomeric streptavidin mutant SEQ ID NO: 6, Q24E, S25R (protein)
# chain: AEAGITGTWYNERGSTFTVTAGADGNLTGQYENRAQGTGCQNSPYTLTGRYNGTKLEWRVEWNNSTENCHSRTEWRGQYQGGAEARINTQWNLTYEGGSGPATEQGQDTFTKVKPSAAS
# modifications: Modified streptavidin
# B6: mSA-ERF: monomeric streptavidin mutant SEQ ID NO: 8, Q24E, S25R, T48F (protein)
# chain: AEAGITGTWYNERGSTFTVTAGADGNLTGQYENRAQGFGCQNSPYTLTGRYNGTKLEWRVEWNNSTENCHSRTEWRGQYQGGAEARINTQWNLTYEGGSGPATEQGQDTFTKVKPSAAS
# modifications: Modified streptavidin
# B7: mSA-RWT: monomeric streptavidin mutant SEQ ID NO: 4, S25R, T48W, E124T (protein)
# chain: AEAGITGTWYNQRGSTFTVTAGADGNLTGQYENRAQGWGCQNSPYTLTGRYNGTKLEWRVEWNNSTENCHSRTEWRGQYQGGAEARINTQWNLTYEGGSGPATTQGQDTFTKVKPSAAS
# modifications: Modified streptavidin
# B8: mSA-H: monomeric streptavidin mutant SEQ ID NO: 5, S25H (protein)
# chain: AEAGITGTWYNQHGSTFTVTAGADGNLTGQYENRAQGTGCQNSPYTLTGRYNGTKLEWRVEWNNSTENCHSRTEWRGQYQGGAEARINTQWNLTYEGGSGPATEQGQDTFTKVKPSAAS
# modifications: Modified streptavidin
# B9: mSA: engineered monomeric streptavidin, reference sequence SEQ ID NO: 1 (Lim et al. 2013) (protein)
# chain: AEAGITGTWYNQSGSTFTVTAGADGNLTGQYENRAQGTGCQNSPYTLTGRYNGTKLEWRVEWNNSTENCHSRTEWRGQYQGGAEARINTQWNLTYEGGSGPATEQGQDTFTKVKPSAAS
# modifications: monomeric streptavidin
# B10: mSA-DRWT: monomeric streptavidin mutant SEQ ID NO: 11, Q24D, S25R, T48W, E124T (protein)
# chain: AEAGITGTWYNDRGSTFTVTAGADGNLTGQYENRAQGWGCQNSPYTLTGRYNGTKLEWRVEWNNSTENCHSRTEWRGQYQGGAEARINTQWNLTYEGGSGPATTQGQDTFTKVKPSAAS
# modifications: Modified streptavidin
# Experiments:
# [1] = Fluorescence polarization spectroscopy, biotin dissociation rate (koff); format: binding; settings: for t1/2: dissociation half-life t1/2=0.693/koff, biotin-fluorescein; for t1/2 / Koff(×10^−3 min^−1): 37° C.; for Koff(×10^−3 min^−1): dissociation of biotin-fluorescein, excess free biotin 100 μM
# Description: FIG. 4. In vitro characterization of purified mSA mutants. a) Stability of mSA-RF and mSA-RWT in PBS was measured by circular dichroism spectroscopy with or without biotin. b) Fluorescence polarization spectroscopy was used to measure the dissociation rate of biotin-fluorescein. The dissociation rate, koff, was computed by fitting normalized fluorescence polarization data, or bound fraction f, to an exponentially decaying function, i.e. ƒ=e^−k^off^*t The measurements were taken at 37° C. c) The equilibrium affinity of binding Kd between mSA-RF and biotin-fluorescein was measured by FP. d) mSA-S25H and mSA-RF were analyzed by size exclusion chromatography to estimate their molecular weights in solution. Each mutant eluted with a retention time that was consistent with monomeric streptavidin. The molecular weight standards (arrows) correspond to 66.0, 29.0, 12.4 and 6.5 kDa from left to right.
# The binding of biotinylated fluorescein (bf, AnaSpec) was measured using a microplate reader (SpectraMax® i3 Microplate reader from Molecular Devices) in flat bottom 96 well plates (Sterilin Ltd). To measure Kd, 100 nM bf was first mixed with titrating amounts of mSA in PBS containing 0.1 mg/ml bovine serum albumin (BSA). After overnight incubation at room temperature, the fluorescence polarization values were measured and fit to the quadratic binding equation (Hsu and Park, 2010, J Mol Graph Model, 29, 295-308). To measure the off rate (koff), 10 nM bf was first mixed with 50 nM mSA and incubated for 2 hr to form a biotin-mSA complex. To observe dissociation of bf, excess free biotin was added to a final concentration of 100 μM and recording of fluorescence was started immediately. The intensity of polarized fluorescence was measured at various time points and normalized with respect to the value at t=0 min. The intensities were fit to an exponentially decaying function e^−k^off^*t to compute koff. The dissociation half-life t1/2=0.693/koff.
# We measured the biotin dissociation rate of various mSA mutants by fluorescence polarization spectroscopy. Table 2 presents the biotin dissociation rate (koff) of various mutants measured by fluorescence polarization spectroscopy. The S25R mutation lowered koff by nearly 21 fold compared to the original mSA and 3.3 fold compared to the S25H mutant (Table 2, FIG. 4b).
# [2] = tested on: HEK293 cells displaying biotinylated AP-CFP; test: Fluorescent labeling of cell surface biotinylated receptor, confocal microscopy; format: cell-based
# From the text: FIG. 5. Fluorescent labeling of HEK293 cells displaying biotinylated receptor. a) HEK293 cells displaying biotinylated AP-CFP were labeled with Alexa488-conjugated mSA-RWT and imaged by fluorescence microscopy. Fluorescence was filtered for (i) CFP and (ii) Alexa488 and the same field of vision was imaged multiple times at regular intervals to measure the stability of labeling. iii. DIC. mSA-RWT binds only CFP positive cells, indicating high specificity of interaction. b-c) HEK293 displaying unrelated protein fused to CFP b) or untransfected HEK293 c) were treated with purified BirA and then labeled with fluorescent mSA-RWT as in part (a) (i)-(iii) the same as before. d) The captured fluorescence images of mSA-RWT—Alexa488 labeled cells (in jpg format) were loaded into MatLab and the amount of CFP and Alexa488 fluorescence was quantified by summing over pixel values. The fluorescence intensity was normalized with respect to the value at t=0. e) Cells labeled with mSA-RF—EGFP were similarly imaged and analyzed to determine the time dependent loss of mSA labeling.
# Adherent HEK293 cells were seeded in a 24 well plate (Becton Dickinson) and grown in DMEM supplemented with 10% FBS and antibiotic/antimycotic (Invitrogen). At 50% confluency, the cells were transfected with a plasmid containing pDisplay-AP-CFP-TM. After 2 days the wells were supplemented with 100 nM purified BirA, 5 mM ATP, and 0.3 mM biotin and the biotinylation reaction was carried out overnight. The following morning, the cells were detached from the wells using EDTA Solution (Versene from Life Technologies), washed with PBS containing 0.1% w/v BSA (PBSF), and fixed in 4% paraformaldehyde solution. Prior to microscopy, cells were labeled with 1 μM mSA-RWT—Alexa488 or 1 μM mSA-RF—EGFP in PBSF for 30 minutes. Excess protein was washed away and cells were switched to PBSF with 0.9 mM biotin. Each sample was mounted on slides and imaged using confocal microscopy. The same field of view was imaged every 10 min for 60 min to quantify fluorescence loss as a function of time. The captured images were analyzed with microscope software (ZEN from Zeiss, and MatLab® from MathWorks).
# We tested the use of mSA-RWT or mSA-RF in cell imaging, in which biotinylated proteins on the cell surface were labeled with Alexa488 conjugated mSA-RWT or mSA-RF fused to EGFP, and imaged by fluorescence confocal microscopy. Cell imaging is an important test of whether engineered mutants can specifically interact with biotinylated ligands in a heterogeneous environment, in which other potentially competing interactions can interfere with desired detection. […]
# To evaluate the stability of labeling, we imaged the labeled cells repeatedly over 1 hr and quantified the fluorescence intensity of Alexa488 or GFP at regular intervals. […]
# [3] = currently available mSA, Lim et al.; cited from earlier work
Molecule,t1/2 [1] [h],Koff(×10^−3 min^−1) [1],also measured
B1,4.62 ± 0.2,2.51 ± 0.11 ×10^−3 min^−1,fold lowering of koff compared to the S25H mutant [1]: 3.3 fold; fold lowering of koff compared to the original mSA [1]: ~21 fold and 25 fold; t1/2 ([1]; listed as S25R): 4.62 h
B2,1.19 ± 0.0283,9.73 ± 0.24 ×10^−3 min^−1,
B3,0.568 ± 0.02,20.3 ± 0.69 ×10^−3 min^−1,
B4,0.778 ± 0.0217,14.9 ± 0.41 ×10^−3 min^−1,
B5,1.14 ± 0.102,10.2 ± 0.91 ×10^−3 min^−1,
B6,1.26 ± 0.03,9.15 ± 0.21 ×10^−3 min^−1,
B7,5.48 ± 0.35,2.11 ± 0.13 ×10^−3 min^−1,"Alexa488/GFP fluorescence of labeled cells over time ([2]; after 1 hr, 900 μM biotin in the labeling solution): remained high; labeling of cells displaying biotinylated AP-CFP ([2]; fixed HEK293 cells, 1 μM for 30 minutes): Only CFP positive cells were labeled selectively; off rate / dissociation half-life compared with another mutant ([1]; result in words): longer than mSA-S25R"
B8,1.41 ± 0.0517,8.19 ± 0.31 ×10^−3 min^−1,
B9,0.183,63 ×10^−3 min^−1,biotin dissociation koff [3]: 0.00105 s⁻¹; dissociation t1/2 [3]: 0.183 h
B10,0.717 ± 0.0233,16.1 ± 0.52 ×10^−3 min^−1,
